Results taken from paper PMC6815173.
Where two headings read alike, the source gives them in different places.

How the values were obtained:
Assay in all cases: SPR
[1] = molecular target: M domain of α-catenin (human)
[2] = molecular target: actin-binding domain (ABD) of α-catenin (human)
[3] = molecular target: actin-binding domain (ABD) of α-catenin (human); remark: listed apart in the source

Kd [1]: 104 nM
koff [1]: 0.0013 s⁻¹
Kd [2]: 466 nM
Kd [3]: 486 nM
Substance: β-catenin•epithelial cadherin cytoplasmic domain complex (BE) (from UniProt P35222;P12830)
